B1: Isoform 5 of Intermediate filament family orphan 1 (Homo sapiens), Q0D2I5-5 (parent)
chain: MNPLFGPNLFLLQQEQQGLAGPLGDSLGGDHFAGGGDLPPAPLSPAGPAAYSPPGPGPAPPAAMALRNDLGSNINVLKTLNLRFRCFLAKVHELERRNRLLEKQLQQALEEGKQGRRGLGRRDQAVQTGFVSPIRPLGLQLGARPAAVCSPSARVLGSPARSPAGPLAPSAASLSSSSTSTSTTYSSSARFMPGTIWSFSHARRLGPGLEPTLVQGPGLSWVHPDGVGVQIDTITPEIRALYNVLAKVKRERDEYKRRWEEEYTVRIQLQDRVNELQEEAQEADACQEELALKVEQLKAELVVFKGLMSNNLSELDTKIQEKAMKVDMDICRRIDITAKLCDVAQQRNCEDMIQMFQKKLVPSMGGRKRERKAAVEEDTSLSESEGPRQPDGDEEESTALSINEEMQRMLNQLREYDFEDDCDSLTWEETEETLLLWEDFSGYAMAAAEAQGEQQEDSLEKVIKDTESLFKTREKEYQETIDQIELELATAKNDMNRHLHEYMEMCSMKRGLDVQMETCRRLITQSGDRKSPAFTAVPLSDPPPPPSEAEDSDRDVSSDSSMR
B2: Prelamin-A/C (Homo sapiens), P02545-1 (parent)
chain: METPSQRRATRSGAQASSTPLSPTRITRLQEKEDLQELNDRLAVYIDRVRSLETENAGLRLRITESEEVVSREVSGIKAAYEAELGDARKTLDSVAKERARLQLELSKVREEFKELKARNTKKEGDLIAAQARLKDLEALLNSKEAALSTALSEKRTLEGELHDLRGQVAKLEAALGEAKKQLQDEMLRRVDAENRLQTMKEELDFQKNIYSEELRETKRRHETRLVEIDNGKQREFESRLADALQELRAQHEDQVEQYKKELEKTYSAKLDNARQSAERNSNLVGAAHEELQQSRIRIDSLSAQLSQLQKQLAAKEAKLRDLEDSLARERDTSRRLLAEKEREMAEMRARMQQQLDEYQELLDIKLALDMEIHAYRKLLEGEEERLRLSPSPTSQRSRGRASSHSSQTQGGGSVTKKRKLESTESRSSFSQHARTSGRVAVEEVDEEGKFVRLRNKSNEDQSMGNWQIKRQNGDDPLLTYRFPPKFTLKAGQVVTIWAAGAGATHSPPTDLVWKAQNTWGCGNSLRTALINSTGEEVAMRKLVRSVTVVEDDEDEDGDDLLHHHHGSHCSSSGDPAEYNLRSRTVLCGTCGQPADKASASGSGAQVGGPISSGSSASSVTVTRSYRSVGGSGGGSFGDNLVTRSYLLGNSSPRTQSPQNCSIM

Variants of: B1
Conditions: with lmna_human LMNA

Variant | effect of a mutation on the interaction
R85H | disrupting interaction strength
A89T | with no effect
A89V | with no effect
A65P | with no effect
A65V | with no effect
N73D | disrupting interaction strength
N73K | decreasing interaction strength

Variants of: B1
Conditions: with xrcc4_human XRCC4, Q13426
Sequence of xrcc4_human XRCC4, Q13426 (Q13426 whole entry): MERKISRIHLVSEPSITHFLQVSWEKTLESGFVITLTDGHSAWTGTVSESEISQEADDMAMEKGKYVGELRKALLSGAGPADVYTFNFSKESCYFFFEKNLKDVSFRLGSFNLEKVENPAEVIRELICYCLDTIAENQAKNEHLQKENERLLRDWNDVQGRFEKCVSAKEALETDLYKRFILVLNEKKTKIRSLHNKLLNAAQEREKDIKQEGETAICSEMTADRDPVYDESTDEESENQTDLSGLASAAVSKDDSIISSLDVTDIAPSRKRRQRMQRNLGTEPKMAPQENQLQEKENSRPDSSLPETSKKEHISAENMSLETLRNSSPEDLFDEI

Variant | effect of a mutation on the interaction
D494A;R520A | disrupting interaction strength
I484R;A491R | disrupting interaction strength
D494A;D513A;R520A | disrupting interaction strength
M516R;C519R | disrupting interaction strength
C519R | disrupting interaction strength

Variants of: B1
Conditions: with lmna_human LMNA
Remark: another data set of the same source

Variant | effect of a mutation on the interaction
N73D;R85H | disrupting interaction strength

Variants of: B2
Conditions: with iffo1_human IFFO1, Q0D2I5

Variant | effect of a mutation on the interaction
E358K | disrupting interaction strength
R386M | disrupting interaction strength
